Assay results taken from PMC4818781 (EMBO Reports, 2016).
“And” between values parts separate entries of the source, which are not always exact repeats. Equal entries are not always repeated.

Tests used:
[1] = molecular target: the molecule itself; assay: SEC-MALS; room temperature; 100 μl of protein at 1 mg/ml; 50 mM HEPES pH 8, 50 mM NaCl, 5 mM DTT
[2] = molecular target: the molecule itself; assay: SEC-MALS; room temperature; 100 μl of protein at 1 mg/ml; 50 mM HEPES pH 8, 150 mM NaCl, 5 mM DTT; elution volumes of SEC also told
[3] = molecular target: hsMis18β_(56–183), Yippee‐like globular domain of human Mis18β (human, UniProt O43482 56-183); assay: as above; conditions: both partners purified
hsMis18β_(56–183), Yippee‐like globular domain of human Mis18β, sequence (O43482 56-183): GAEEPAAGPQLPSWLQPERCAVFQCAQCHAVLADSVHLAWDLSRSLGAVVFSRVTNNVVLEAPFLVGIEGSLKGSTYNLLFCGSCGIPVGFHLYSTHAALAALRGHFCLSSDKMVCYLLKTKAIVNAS

[4] = molecular target: the molecule itself; assay: SEC-MALS; room temperature; 100 μl of protein at 1 mg/ml; 50 mM HEPES pH 8, 300 mM NaCl, 1 mM TCEP

| Binder | stoichiometry N [2] | other results |
| --- | --- | --- |
| His‐spMis18ΔC (amino acids 1–168) (domain or fragment, Schizosaccharomyces pombe, UniProt Q9P802 1-168, looked up) MSQTETSHSGYIDFKKESQPSVFQCKKCFQIVGDSNAWVISHREYLSFTLSDAVENSVRVEDTFKRSDDGLCVYSELSCTRCNEVIGKVYNSTPIYLDDIRDMYTFSMDKLQAYQLGNKTVNPEGLTRYQVDLEMREDIIKLKSFCLSLYEKFELHDETLRSVKETIS |  | stoichiometry N [1]: 2 and 4 |
| His‐GFP‐spMis18_(C‐term‐α), C‐terminal α‐helical domain of S. pombe Mis18 (domain or fragment, Schizosaccharomyces pombe, UniProt Q9P802 121-194, looked up) VNPEGLTRYQVDLEMREDIIKLKSFCLSLYEKFELHDETLRSVKETISSLKKPKIEGKEGKKEKARTYSKRTRK | 3 |  |
| His‐spMis18_(1–120), N‐terminal Yippee‐like globular domain of S. pombe Mis18 (domain or fragment, Schizosaccharomyces pombe, UniProt Q9P802 1-120, looked up) MSQTETSHSGYIDFKKESQPSVFQCKKCFQIVGDSNAWVISHREYLSFTLSDAVENSVRVEDTFKRSDDGLCVYSELSCTRCNEVIGKVYNSTPIYLDDIRDMYTFSMDKLQAYQLGNKT | 2 |  |
| His‐hsMis18α_(77–187), Yippee‐like globular domain of human Mis18α (domain or fragment, UniProt Q9NYP9 77-187, looked up) EERPLVFLCSGCRRPLGDSLSWVASQEDTNCILLRCVSCNVSVDKEQKLSKREKENGCVLETLCCAGCSLNLGYVYRCTPKNLDYKRDLFCLSVEAIESYVLGSSEKQIVS | 2 | stoichiometry N [3]: 1 |
| His‐GFP‐spMis18fl, recombinant full‐length S. pombe Mis18 (natural protein, Schizosaccharomyces pombe, UniProt Q9P802 1-194, looked up) MSQTETSHSGYIDFKKESQPSVFQCKKCFQIVGDSNAWVISHREYLSFTLSDAVENSVRVEDTFKRSDDGLCVYSELSCTRCNEVIGKVYNSTPIYLDDIRDMYTFSMDKLQAYQLGNKTVNPEGLTRYQVDLEMREDIIKLKSFCLSLYEKFELHDETLRSVKETISSLKKPKIEGKEGKKEKARTYSKRTRK |  | stoichiometry N [4]: 4 and 2 |
